Measured values from article PMC4036194.

Tests used:
[1] = target: mEos2-labeled acid-sensing ion channel hASIC (UniProt P78348); assay: fluorescence photoactivated localization microscopy (FPALM) with pair correlation analysis; mEos2 fusions on the plasma membrane of fixed, transfected HEK293 cells; TIRF-PALM; 30 regions of 1 μm^2 on five cells; proteins per cluster
[2] = target: Full-length C24A β3 mutant with a carboxyl-terminal Myc epitope tag; assay: atomic force microscopy (AFM) imaging; Myc-tagged β3 (wild type or C24A) immunoisolated from tsA 201 detergent extract, diluted to ~40 pM, adsorbed to mica, imaged in air in tapping mode; molecular volumes of particles

mEos2-labeled acid-sensing ion channel hASIC (from UniProt P78348 1-528) (natural protein), sequence (P78348 whole entry): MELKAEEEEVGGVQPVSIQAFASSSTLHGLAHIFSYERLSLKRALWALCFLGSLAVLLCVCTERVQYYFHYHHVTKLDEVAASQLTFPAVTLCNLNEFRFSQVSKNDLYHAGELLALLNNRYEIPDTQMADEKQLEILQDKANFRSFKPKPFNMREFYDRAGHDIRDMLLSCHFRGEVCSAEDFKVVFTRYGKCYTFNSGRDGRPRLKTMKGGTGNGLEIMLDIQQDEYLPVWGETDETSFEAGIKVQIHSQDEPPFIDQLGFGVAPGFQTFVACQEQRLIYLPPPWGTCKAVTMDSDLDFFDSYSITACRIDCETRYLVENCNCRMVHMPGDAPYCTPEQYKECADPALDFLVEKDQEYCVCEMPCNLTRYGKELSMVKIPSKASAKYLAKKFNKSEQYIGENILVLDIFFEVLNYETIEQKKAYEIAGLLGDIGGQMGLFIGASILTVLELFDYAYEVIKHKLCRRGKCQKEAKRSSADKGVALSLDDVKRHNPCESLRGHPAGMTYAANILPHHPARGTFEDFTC

stoichiometry N [1]	stoichiometry N [2]	Substance
3		mEos2-labeled acid-sensing ion channel hASIC (from UniProt P78348 1-528) (natural protein)
	2	Full-length C24A β3 mutant with a carboxyl-terminal Myc epitope tag (natural protein)
